Laboratory results from patent publication US20240327525A1 (VIB VZW, published 2024).
Read-outs that look alike come from different tables or passages of the source.

Experiments:
[1] = molecular target: T1, human CI-M6PR domain1-3His6 (human, UniProt P11717 41-467); test: BLI, biotinylated antigen on SA tips, global 1:1 fit, association at pH 7.4
T1 construct: Recombinant, made in HEK293 cells; Biotinylated with NHS-PEG4-biotin for BLI; unlabelled in SEC-MALLS and crystallisation; also called CI-M6PR hDom1-3His6; hDom1-3His6
Procedure: (§1) For VHH 1H11 (SEQ ID NO: 24) and VHH 1H52 (SEQ ID NO: 25), a BLI experiment was performed in which the human CI-M6PR domain₁₋₃His₆ was biotinylated and coupled to streptavidin biosensor tips. After loading, the tips were incubated with VHHs serially diluted in pH 7.4 kinetic buffer during the association phase and dissociation was performed at pH 7.4, pH 6.5, pH 6.0, pH 5.5 and pH 5.0. All biosensor tips were then regenerated before analysis of the subsequent VHH. […] When both association and dissociation were performed at pH 7.4, a global fit was performed according to the 1:1 binding model of which the resulting affinity constants (KD), association (kₒₙ) and dissociation rate constants (koff) are shown. For measurements with association at pH 7.4 and dissociation at pH 6.5, 6.0, 5.5 and 5.0, the depicted dissociation rate constants are an average of the parameters determined by local curve fitting of the dissociation of 200, 100 and 50 nM VHH. Association-dissociation curves for VHH1H11 and VHH1H52 are shown in FIG. 19 and FIG. 20, respectively.

[2] = molecular target: T1, human CI-M6PR domain1-3His6; test: BLI, biotinylated antigen on SA tips, global 1:1 fit, dissociation at pH 7.4
Procedure: as §1

[3] = molecular target: T1, human CI-M6PR domain1-3His6; test: BLI, association pH 7.4, dissociation at pH 6.0, mean of local fits
Procedure: (§2) FIG. 19-20. Association-dissociation graphs of anti-CI-M6PR VHH1H11 and VHH1H52, resp. analyzed using BLI. BLI was performed on an Octet Red96 (FortéBio) instrument in kinetics buffer (0.2 M Na₂HPO₄, 0.1 M Na⁺citrate, 0.01% bovine serum albumin, 0.002% Tween-20). Biotinylated human domain₁₋₃His₆ was immobilized on Streptavidin SA biosensors (Sartorius) to a signal of 0.6 nm. A 120 s association phase in VHH 1H11 (FIG. 19) or VHH 1H52 (FIG. 20) serially diluted (0-200 nM) in pH 7.4 phosphate citrate buffer, was followed by 420 s of dissociation in phosphate buffer of either pH 7.4, 6.5, 6.0, 5.5 or 5.0. Between assays, biosensors were regenerated by three times 10 s exposure to regeneration buffer (10 mM glycine pH 3). The degree of association and dissociation was measured in δ nm over time(s).
(§3) For VHH 1H11 (SEQ ID NO: 24) and VHH 1H52 (SEQ ID NO: 25), a BLI experiment was performed in which the human CI-M6PR domain₁₋₃His₆ was biotinylated and coupled to streptavidin biosensor tips. […] For measurements with association at pH 7.4 and dissociation at pH 6.5, 6.0, 5.5 and 5.0, the depicted dissociation rate constants are an average of the parameters determined by local curve fitting of the dissociation of 200, 100 and 50 nM VHH. […]

[4] = molecular target: T1, human CI-M6PR domain1-3His6; test: BLI, association pH 7.4, dissociation at pH 6.5, mean of local fits
Procedure: as §1

[5] = molecular target: T1, human CI-M6PR domain1-3His6; test: BLI, association pH 7.4, dissociation at pH 5.5, mean of local fits
Procedure: as §2, §3

[6] = molecular target: T1, human CI-M6PR domain1-3His6; test: BLI, association pH 7.4, dissociation at pH 5.0, mean of local fits
Procedure: as §2, §3

[7] = molecular target: T1, human CI-M6PR domain1-3His6; test: BLI, biotinylated antigen on SA tips, global 1:1 fit, dissociation at pH 7.4; remark: listed apart in the source
Procedure: (§4) Biotinylated human domain₁₋₃His₆ was immobilized on Streptavidin SA biosensors (Sartorius) to a signal of 0.6 nm. […] Between runs, biosensors were regenerated by three times 10 s exposure to regeneration buffer (10 mM glycine pH 3). The degree of association and dissociation was measured in δ nm over time(s).
as §4, with “FIGS. 10A-10E. […] BLI was performed on an Octet Red96 (FortéBio) instrument in kinetics buffer (0.2 M Na₂HPO₄, 0.1 M Na⁺citrate, 0.01% bovine serum albumin, 0.002% Tween-20). Biotinylated” for “Biotinylated”, “assays,” for “runs,”
(§5) After loading, the tips were incubated with VHHs serially diluted in pH 7.4 kinetic buffer during the association phase and dissociation was performed at pH 7.4, pH 6.5, pH 6.0, pH 5.5 and pH 5.0. All biosensor tips were then regenerated before analysis of the subsequent VHH. Table 3 summarizes the kinetic parameters retrieved after processing and curve fitting of the BLI measurements.

[8] = molecular target: T1, human CI-M6PR domain1-3His6; test: BLI, association pH 7.4, dissociation at pH 5.0, mean of local fits; remark: listed apart in the source
Procedure: as §4, with “FIGS. 9A-9E. […] BLI was performed on an Octet Red96 (FortéBio) instrument in kinetics buffer (0.2 M Na₂HPO₄, 0.1 M Na⁺citrate, 0.01% bovine serum albumin, 0.002% Tween-20). Biotinylated” for “Biotinylated”
as §4, with “FIGS. 10A-10E. […] BLI was performed on an Octet Red96 (FortéBio) instrument in kinetics buffer (0.2 M Na₂HPO₄, 0.1 M Na⁺citrate, 0.01% bovine serum albumin, 0.002% Tween-20). Biotinylated” for “Biotinylated”, “assays,” for “runs,”

[9] = molecular target: human cation-independent mannose-6-phosphate receptor on cells (human, UniProt P11717 41-2491); test: cell-based or functional assay
[10] = molecular target: T1, human CI-M6PR domain1-3His6; test: BLI, biotinylated antigen on SA tips, global 1:1 fit, association at pH 7.4; remark: listed apart in the source
Procedure: as §4
as §4, with “FIGS. 10A-10E. […] BLI was performed on an Octet Red96 (FortéBio) instrument in kinetics buffer (0.2 M Na₂HPO₄, 0.1 M Na⁺citrate, 0.01% bovine serum albumin, 0.002% Tween-20). Biotinylated” for “Biotinylated”, “assays,” for “runs,”
as §5

[11] = molecular target: T1, human CI-M6PR domain1-3His6; test: BLI, association pH 7.4, dissociation at pH 5.5, mean of local fits; remark: listed apart in the source
Procedure: as §4, with “FIGS. 9A-9E. […] BLI was performed on an Octet Red96 (FortéBio) instrument in kinetics buffer (0.2 M Na₂HPO₄, 0.1 M Na⁺citrate, 0.01% bovine serum albumin, 0.002% Tween-20). Biotinylated” for “Biotinylated”
as §4, with “FIGS. 10A-10E. […] BLI was performed on an Octet Red96 (FortéBio) instrument in kinetics buffer (0.2 M Na₂HPO₄, 0.1 M Na⁺citrate, 0.01% bovine serum albumin, 0.002% Tween-20). Biotinylated” for “Biotinylated”, “assays,” for “runs,”

[12] = molecular target: T1, human CI-M6PR domain1-3His6; test: not stated in the sentence (pH-dependent dissociation)
[13] = molecular target: T1, human CI-M6PR domain1-3His6; test: BLI, association pH 7.4, dissociation at pH 6.0, mean of local fits; remark: listed apart in the source
Procedure: as §4, with “FIGS. 9A-9E. […] BLI was performed on an Octet Red96 (FortéBio) instrument in kinetics buffer (0.2 M Na₂HPO₄, 0.1 M Na⁺citrate, 0.01% bovine serum albumin, 0.002% Tween-20). Biotinylated” for “Biotinylated”
as §4, with “FIGS. 10A-10E. […] BLI was performed on an Octet Red96 (FortéBio) instrument in kinetics buffer (0.2 M Na₂HPO₄, 0.1 M Na⁺citrate, 0.01% bovine serum albumin, 0.002% Tween-20). Biotinylated” for “Biotinylated”, “assays,” for “runs,”

[14] = molecular target: T1, human CI-M6PR domain1-3His6; test: BLI, association pH 7.4, dissociation at pH 6.5, mean of local fits; remark: listed apart in the source
Procedure: as §4, with “FIGS. 9A-9E. […] BLI was performed on an Octet Red96 (FortéBio) instrument in kinetics buffer (0.2 M Na₂HPO₄, 0.1 M Na⁺citrate, 0.01% bovine serum albumin, 0.002% Tween-20). Biotinylated” for “Biotinylated”
as §4, with “FIGS. 10A-10E. […] BLI was performed on an Octet Red96 (FortéBio) instrument in kinetics buffer (0.2 M Na₂HPO₄, 0.1 M Na⁺citrate, 0.01% bovine serum albumin, 0.002% Tween-20). Biotinylated” for “Biotinylated”, “assays,” for “runs,”

[15] = molecular target: T1, human CI-M6PR domain1-3His6; test: BLI at pH 7.4

Row | Binder | kon [1] [M⁻¹ s⁻¹] | Kd [2] [nM] | koff [2] [s⁻¹] | koff [3] [s⁻¹] | koff [4] [s⁻¹] | koff [5] [s⁻¹] | koff [6] [s⁻¹] | Kd [7] [nM] | koff [7] [s⁻¹] | koff [8] [s⁻¹] | internalisation rate (live-cell imaging of AF488-VHH on MCF7 cells) [9] [summed AF-voxels/minute] | kon [10] [M⁻¹ s⁻¹] | koff [11] [s⁻¹] | fold higher dissociation rate at pH 6.0 versus pH 7.4 [12] [fold] | koff [13] [s⁻¹] | koff [14] [s⁻¹] | Kd [15] [nM]
1 | anti-CI-M6PR VHH7 (VHH, Purified by IMAC, so tagged; Labelled with Alexa Fluor 488 (NHS ester) in the imaging experiments) VHH: QVQLQESGGGLVQPGGSLRLSCAASGIIFSDNRMDWYRQAPGKQREWVATLASYGWKTYADSVKGRFTISRDNTKNTVYLRMNSLKPEDTAVYYCKASSPVLNDIWGQGTQVTVSS |  |  |  |  |  |  |  | 10.1 | 0.0055 | 0.017 | 1.26e+06 | 540000 | 0.013 | 5 | 0.0099 | 0.0091 | 
2 | anti-CI-M6PR VHH8 (VHH, Purified by IMAC, so tagged; Labelled with Alexa Fluor 488 (NHS ester) in the imaging experiments) VHH: QVQLQESGGGLVQAGGSLRLSCEASGRTFNTYNWGWFRQAPGKEREFVAAIRWSSSKTSYADSVKGRFTISRDNAKNTIYLQMNSLKPEDTAVYYCAASIVDFTTNPSHFGSWGQGTQVTVSS |  |  |  |  |  |  |  | 0.534 | 0.00032 | 0.023 | 673000 | 610000 | 0.0034 |  | 0.00091 | 0.00084 | ~3.35

The next lines start with the values.

Row | kon [1] [M⁻¹ s⁻¹] | Kd [2] [nM] | koff [2] [s⁻¹] | koff [3] [s⁻¹] | koff [4] [s⁻¹] | koff [5] [s⁻¹] | koff [6] [s⁻¹] | Kd [7] [nM] | koff [7] [s⁻¹] | koff [8] [s⁻¹] | internalisation rate (live-cell imaging of AF488-VHH on MCF7 cells) [9] [summed AF-voxels/minute] | kon [10] [M⁻¹ s⁻¹] | koff [11] [s⁻¹] | fold higher dissociation rate at pH 6.0 versus pH 7.4 [12] [fold] | koff [13] [s⁻¹] | koff [14] [s⁻¹] | Kd [15] [nM] | Binder
3 | 1e+06 | 31 | 0.032 | 0.03 | 0.067 | 0.051 | 0.2 |  |  |  |  |  |  |  |  |  |  | anti-CI-M6PR VHH 1H52 (VHH, Made in E. coli (pHEN6c), IMAC purified; tag not specified) VHH: QVQLQESGGGLVQPGGSLRLSCTASGFTWDSYVIGWFRQAPGKGREGVSCLDVDDGSIYYHDSAKGRFSISRDNAKNTVYLQMNSLKPEDTAVYYCAAVNRASMRFRRCLQVLRYDYWGQGTQVTVSS
4 | 510000 | 4.9 | 0.0025 | 0.0051 | 0.0048 | 0.0063 | 0.0083 |  |  |  |  |  |  |  |  |  |  | anti-CI-M6PR VHH 1H11 (VHH, Made in E. coli (pHEN6c), IMAC purified; tag not specified) VHH: QVQLQESGGGLVQPGGSLRLSCAASGIIFSDNRMDWYRQAPGKQREWVATLASYGWKTYADSVKDRFTISRDNAKNTVNLYMNSLQPEDTAVYYCNSGQYWGQGTQVTVSS
